Numbering of substitutions follows the chain as printed. Names may count otherwise.

The term Kd denotes the equilibrium constant for the complex coming apart.

T1: canine FcRn heterodimer (FCGRT large subunit p51 + beta-2-microglobulin), biotin-labeled (Canis lupus familiaris; Canis familiaris, biotin-labeled (site not stated; the chain carries an AviTag))
T1 construct: also called FcRn/B2M; FcRn/β2M; not shown: AviTag, named only
T1 chain (part 1 of 2): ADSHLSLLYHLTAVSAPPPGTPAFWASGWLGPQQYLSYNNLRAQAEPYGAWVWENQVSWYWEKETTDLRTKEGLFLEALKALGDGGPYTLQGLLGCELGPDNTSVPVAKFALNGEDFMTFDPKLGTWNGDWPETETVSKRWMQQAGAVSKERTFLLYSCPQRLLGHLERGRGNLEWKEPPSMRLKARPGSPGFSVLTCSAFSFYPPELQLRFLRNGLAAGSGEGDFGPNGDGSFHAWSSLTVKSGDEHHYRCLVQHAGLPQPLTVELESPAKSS
T1 chain (part 2 of 2): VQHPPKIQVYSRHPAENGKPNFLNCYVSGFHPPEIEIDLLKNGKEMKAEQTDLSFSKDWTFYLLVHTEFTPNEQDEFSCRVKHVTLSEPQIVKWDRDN

B1: cIL-13Ra2-Fc (unsubstituted canine IL-13Rα2 ECD - cIgG-B hinge - cIgG-B Fc fusion protein) (Fc fusion)
chain: SMLSNAEIKVNPPQDFEIVDPGYLGYLSLQWQPPLFPDNFKECTIEYELKYRNIDSENWKTIITKNLHYKDGFDLNKGIEAKINTLLPAQCTNGSEVRSSWAETTYWTSPQGNRETKIQDMDCVYYNWQYLVCSWKPGMGVHFDTNYQLFYWYEGLDHSAECTDYIKVNGKNMGCRFPYLESSDYKDFYICVNGSSESQPIRPSYFIFQLQNIVKPMPPDYLSLTVKNSEEINLKWNMPKGPIPAKCFIYEIEFTEDGTTWVTTTVENEIQITRTSNESQKLCFLVRSKVNIYCSDDGIWSEWSDEQCWKGDIWKETPKRENGRVPRPPDCPKCPAPEMLGGPSVFIFPPKPKDTLLIARTPEVTCVVVDLDPEDPEVQISWFVDGKQMQTAKTQPREEQFNGTYRVVSVLPIGHQDWLKGKQFTCKVNNKALPSPIERTISKARGQAHQPSVYVLPPSREELSKNTVSLTCLIKDFFPPDIDVEWQSNGQQEPESKYRTTPPQLDEDGSYFLYSKLSVDKSRWQRGDTFICAVMHEALHNHYTQESLSHSPGK
notes: also called cIL-13Rα2-cIgGB-Fc; substitution: None
B2: cIL-13Rα2-cIgGB-Fc-L (Fc fusion)
chain: B1 chain with H540L
notes: also called cIL-13Ra2-cIgGB-Fc-L; H433L
B3: cIL-13Rα2-cIgGB-Fc-DY (Fc fusion)
chain: B1 chain with T361D, N541Y
notes: also called cIL-13Ra2-cIgGB-Fc-DY; T256D/N434Y
B4: cIL-13Rα2-cIgGB-Fc-F (Fc fusion)
chain: B1 chain with N541F
notes: also called cIL-13Ra2-cIgGB-Fc-F; N434F
B5: cIL-13Rα2-cIgGB-Fc-KYT (Fc fusion)
chain: B1 chain with H540K, N541Y, Y543T
notes: also called cIL-13Ra2-cIgGB-Fc-KYT; H433K/N434Y/Y436T
B6: cIL-13Rα2-cIgGB-Fc-KF (Fc fusion)
chain: B1 chain with H540K, N541F
notes: also called cIL-13Ra2-cIgGB-Fc-KF; H433K/N434F
B7: cIL-13Rα2-cIgGB-Fc-LY (Fc fusion)
chain: B1 chain with H540L, N541Y
notes: also called cIL-13Ra2-cIgGB-Fc-LY; H433L/N434Y
B8: cIL-13Rα2-cIgGB-Fc-PY (Fc fusion)
chain: B1 chain with I413P, N541Y
notes: also called cIL-13Ra2-cIgGB-Fc-PY; I308P/N434Y
B9: cIL-13Rα2-cIgGB-Fc-DPY (Fc fusion)
chain: B1 chain with T361D, I413P, N541Y
notes: also called cIL-13Ra2-cIgGB-Fc-DPY; T256D/I308P/N434Y
B10: cIL-13Rα2-cIgGB-Fc-T (Fc fusion)
chain: B1 chain with Y543T
notes: also called cIL-13Ra2-cIgGB-Fc-T; Y436T
B11: cIL-13Rα2-cIgGB-Fc-LF (Fc fusion)
chain: B1 chain with H540L, N541F
notes: also called cIL-13Ra2-cIgGB-Fc-LF; H433L/N434F
B12: cIL-13Rα2-cIgGB-Fc-KFT (Fc fusion)
chain: B1 chain with H540K, N541F, Y543T
notes: also called cIL-13Ra2-cIgGB-Fc-KFT; H433K/N434F/Y436T
B13: cIL-13Rα2-cIgGB-Fc-K (Fc fusion)
chain: B1 chain with H540K
notes: also called cIL-13Ra2-cIgGB-Fc-K; H433K
B14: cIL-13Rα2-cIgGB-Fc-Y (Fc fusion)
chain: B1 chain with N541Y
notes: Made in ExpiCHO, Protein A purified; also called cIL-13Ra2-cIgGB-Fc-Y; N434Y
B15: cIL-13Rα2-cIgGB-Fc-LYT (Fc fusion)
chain: B1 chain with H540L, N541Y, Y543T
notes: also called cIL-13Ra2-cIgGB-Fc-LYT; H433L/N434Y/Y436T
B16: cIL-13Ra2-Fc-YTE (Fc fusion)
chain: B1 chain with L357Y, A359T, T361E
notes: also called L252Y/A254T/T256E
B17: cIL-13Rα2-cIgGB-Fc-LFT (Fc fusion)
chain: B1 chain with H540L, N541F, Y543T
notes: also called cIL-13Ra2-cIgGB-Fc-LFT; H433L/N434F/Y436T
B18: cIL-13Rα2-cIgGB-Fc-KY (Fc fusion)
chain: B1 chain with H540K, N541Y
notes: also called cIL-13Ra2-cIgGB-Fc-KY; H433K/N434Y
B19: cIL-13Rα2-cIgGB-Fc-YT (Fc fusion)
chain: B1 chain with N541Y, Y543T
notes: also called cIL-13Ra2-cIgGB-Fc-YT; N434Y/Y436T
B20: c218D9-H4L3-cIgGBm-YD (antibody)
heavy: EVTLQESGPGLVKPSQTLSLTCSFSGFSLSTFGRGVGWIRQRPGRGLEWMGHIWWDDDKYYNPALKSRLSITKDTAKNQVFLQLSSMTTEDTAVYYCARIAGGLRRAPYAMDSWGQGTLVTVSSASTTAPSVFPLAPSCGSTSGSTVALACLVSGYFPEPVTVSWNSGSLTSGVHTFPSVLQSSGLYSLSSMVTVPSSRWPSETFTCNVAHPASKTKVDKPVPKRENGRVPRPPDCPKCPAPEMLGGPSVFIFPPKPKDTLYIARDPEVTCVVVALDPEDPEVQISWFVDGKQMQTAKTQPREEQFAGTYRVVSVLPIGHQDWLKGKQFTCKVNNKALPSPIERTISKARGQAHQPSVYVLPPSREELSKNTVSLTCLIKDFFPPDIDVEWQSNGQQEPESKYRTTPPQLDEDGSYFLYSKLSVDKSRWQRGDTFICAVMHEALHNHYTQESLSHSPGK
light: DIVMTQTPLSLSVSPGETASISCRASENIYSSLAWFRQKPGQSPQLLVYAATNLADGVPDRFSGSGSGTDYTLRISRVEADDTGVYYCQHFRDTPPTFGQGTKLEIKRNDAQPAVYLFQPSPDQLHTGSASVVCLLNSFYPKDINVKWKVDGVIQDTGIQESVTEQDKDSTYSLSSTLTMSSTEYLSHELYSCEITHKSLPSTLIKSFQRSECQRVD
notes: also called c218D9VH4-cIgGBm-YD; L252Y/T256D

In one experiment the target is T1, canine FcRn heterodimer (FCGRT large …). The experiment can be described thus: BLI (Octet HTX), biotinylated FcRn/B2M on streptavidin biosensors, analyte 500-7.8 nM, pH 7.4, 1:1 fit. The method, then: (§1) The binding of antibodies and IgG Fc fusion proteins to FcRn proteins was determined by Octet™ HTX using Streptavidin (SA) biosensors. First, biotin-labeled […] was loaded onto pre-hydrated SA biosensors for 60 s at a concentration of 10 μg/mL. Second, the biosensors were placed into pH 6.0 TBS/Casein buffer for the blocking phase for 180 s. Third, for the association phase, FcRn/B2M loaded biosensors were placed into 2-fold serial dilutions from 500 nM down to 7.8 nM of antibody or IgG Fc fusion protein in pH 6.0 or 7.4 TBS/Casein buffer for 15 s. Finally, the biosensors were placed into either pH 6.0 or pH 7.4 TBS/Casein buffer for the dissociation phase for 60 s. Analysis was performed using Octet Data Analysis 12.0 software and curves were fitted using a 1:1 binding model.
(In BLI a coated tip is dipped into the sample, and binding shifts an interference pattern.)
For the molecule B1, the Kd came to 7020 nM.

B2: the Kd came to 7210 nM.

For B3, the equilibrium dissociation constant (Kd) is 91.8 nM.

Regarding B4, the equilibrium dissociation constant (Kd) was determined as 229 nM.

Take B5: the Kd was 253 nM.

As to B6, the equilibrium dissociation constant (Kd) came out at 414 nM. Regarding B7, the Kd was 298 nM. On the same count and under the same terms, in the case of B8 it was 20.4 nM. B9: the Kd is 19.8 nM.

Take B10: the equilibrium dissociation constant (Kd) amounted to 6120 nM. Consider B11, for which the equilibrium dissociation constant (Kd) was determined as 226 nM. Take B12: the dissociation constant Kd amounted to 136 nM. For B13, the Kd came to 626 nM. For B14, the Kd worked out at 187 nM.

As for B15, the Kd is 127 nM.

For B16, the Kd stood at 363 nM. On to B17, for which the Kd is 905 nM.

As to B18, the Kd came to 296 nM.

Consider B19, for which the dissociation constant Kd was found to be 233 nM.

Another experiment shares this target. As to the kind of experiment: BLI (Octet HTX), biotinylated FcRn/B2M on streptavidin biosensors, analyte 500-7.8 nM, pH 7.4, 1:1 fit; pH 7.4. The method, then:
as §1
Consider B20, for which the dissociation constant Kd came to 105 nM.

The target is the same in another experiment. The experiment can be described thus: BLI (Octet HTX), biotinylated FcRn/B2M on streptavidin biosensors, analyte 500-7.8 nM, pH 6.0, 1:1 fit. The method, then: as §1
Take B1: the equilibrium dissociation constant (Kd) came out at 16.9 nM. Still for that read-out and setting: in the case of B2 it was 12.3 nM; in that of B3, 0.87 nM; in that of B4, 0.93 nM.

Consider B5, for which the dissociation constant Kd worked out at 2.58 nM. Turning to B6, the Kd was 0.97 nM. Still for that read-out and setting: the same measure for B7: 2.35 nM. As for B8, the equilibrium dissociation constant (Kd) was 0.3 nM.

B9: the equilibrium dissociation constant (Kd) was 0.34 nM. For the molecule B10, the dissociation constant Kd was 5.95 nM. B11: the Kd turned out to be 2.27 nM. Regarding B13, the Kd came out at 7.55 nM. The same measure, in the same setting: the same measure for B14: 0.11 nM; for B15: 3.32 nM; for B16: 6.59 nM.

B17: the Kd turned out to be 2.87 nM. Same read-out and setting: in the case of B19 it was 1.39 nM.

The next experiment shares this target. The experiment can be described thus: BLI (Octet HTX), biotinylated FcRn/B2M on streptavidin biosensors, analyte 500-7.8 nM, pH 6.0, 1:1 fit; pH 6.0. The protocol:
as §1
As to B12, the dissociation constant (Kd) was determined as 931 nM. With B18, the Kd came to 0.00046 nM.
